Results published in paper PMC3973953.

Substrate: O=[N+]([O-])c1ccc(O[C@@H]2O[C@H](CO)[C@H](O)[C@H](O)[C@H]2O)cc1
Test: purified protein
Settings: McIlvaine buffer at optimal pH, 37 °C

B1: A. oryzae β-galactosidase (Aspergillus oryzae RIB40) (protein)
chain: ASIKHRLNGFTILEHPDPAKRDLLQDIVTWDDKSLFINGERIMLFSGEVHPFRLPVPSLWLDIFHKIRALGFNCVSFYIDWALLEGKPGDYRAEGIFALEPFFDAAKEAGIYLIARPGSYINAEVSGGGFPGWLQRVNGTLRSSDEPFLKATDNYIANAAAAVAKAQITNGGPVILYQPENEYSGGCCGVKYPDADYMQYVMDQARKADIVVPFISNDASPSGHNAPGSGTGAVDIYGHDSYPLGFDCANPSVWPEGKLPDNFRTLHLEQSPSTPYSLLEFQAGAFDPWGGPGFEKCYALVNHEFSRVFYRNDLSFGVSTFNLYMTFGGTNWGNLGHPGGYTSYDYGSPITETRNVTREKYSDIKLLANFVKASPSYLTATPRNLTTGVYTDTSDLAVTPLIGDSPGSFFVVRHTDYSSQESTSYKLKLPTSAGNLTIPQLEGTLSLNGRDSKIHVVDYNVSGTNIIYSTAEVFTWKKFDGNKVLVLYGGPKEHHELAIASKSNVTIIEGSDSGIVSTRKGSSVIIGWDVSSTRRIVQVGDLRVFLLDRNSAYNYWVPELPTEGTSPGFSTSKTTASSIIVKAGYLLRGAHLDGADLHLTADFNATTPIEVIGAPTGAKNLFVNGEKASHTVDKNGIWSSEVKYAAPEIKLPGLKDLDWKYLDTLPEIKSSYDDSAWVSADLPKTKNTHRPLDTPTSLYSSDYGFHTGYLIYRGHFVANGKESEFFIRTQGGSAFGSSVWLNETYLGSWTGADYAMDGNSTYKLSQLESGKNYVITVVIDNLGLDENWTVGEETMKNPRGILSYKLSGQDASAITWKLTGNLGGEDYQDKVRGPLNEGGLYAERQGFHQPQPPSESWESGSPLEGLSKPGIGFYTAQFDLDLPKGWDVPLYFNFGNNTQAARAQLYVNGYQYGKFTGNVGPQTSFPVPEGILNYRGTNYVALSLWALESDGAKLGSFELSYTTPVLTGYGNVESPEQPKYEQRKGAY
B1 was tested, and the Km was 3020 ± 610 µM, the kcat was 46.4 ± 1.2 s⁻¹ and the kcat/Km was 14600 ± 600 M⁻¹ s⁻¹.

B2: A. nidulans rlacA (Aspergillus nidulans FGSC A4) (protein)
chain: VALTHKLNGFTITEHPDAEKRELLQKYVTWDDKSLFINGERIMIFGAEIHPWRLPVPSLWRDILQKVKALGFNCVSFYVDWALLEGKPGEYRAEGSFAWEPFFDAASDLGIYLIARPGPYINAEASGGGFPGWLQRLNGTIRSSDQSYLDATENYVSHIGGLIAKYQITNGGPVILYQPDNEYSGGCCGQEFPNPDYFQYVIDQARRAGIVVPTISNDAWPGGHNAPGTGKGEVDIYGHDNYPLGFDCANPDVWPEGNLPTDYRDLHLEISPSTPYALVEYQVGAFDPWGGPGFEQCAALTGYEFERVFHKNTFSFGVGILSLYMTFGGTNWGNLGHPGGYTSYDYGSPIKETREITREKYSELKLLGNFIKSSPGYLLATPGKLTNTTYTNTADLTVTPLLGNGTGSFFVLRHSDYSSQASTPYKLRLPTSAGQLTIPQLGGSLVLNGRDSKVHLVDYDVAGTKILYSTAEVFTWKKFHDGKVLVLYGGPGEHHELAVSSKAKVKVVEGLGSGISSKQIRGAVVVAWDVEPARRIVQIGDLKIFLLDRNSAYNYWVPQLGTETSIPYATEKAVAASVIVKAGYLVRTAYVKGRDLHLTADFNATTPVEVIGAPKTAENLFINGKKAHHTVDKNGIWSTEVGYSPPKIVLPVLEDLKWKSIDTLPEIQPSYDDSPWPDANLPTKNTIYPLRTPTSLYASDYGFHTGYLLFRGHFTANGRESNFSIQTQGGQAFGSSVWLSGTYLGSWTGDNDYQDYNATYTLPSLKAGKEYVFTVVVDNMGLNENWIVGQDEMKKPRGILNYELSGHEASDITWKLTGNFGGEDYVDKVRGPLNEGGLYAERHGYHQPYPPTKSKDWKSSTPLTGLSKPGISFYTASFDLDIKSGWDVPIYFEFGNSTTPAPAYRVQLYVNGWQYGKYVNNIGPQTRFPVPEGILNYKGTNWVAVTLWALEGSGAKLDSFKLVHGIPVRTALDVEGVELPRYQSRKGVY
For B2, the Km was 1850 ± 210 µM, the kcat was 63.4 ± 0.9 s⁻¹ and the kcat/Km was 34100 ± 1500 M⁻¹ s⁻¹.
